Measured values as given in the supplement of paper PMC9170038.

Test system: MS2 coat protein
Experiment: apparent KD of MS2 coat protein; designed switch direction (-1 OFF switch, 1 ON switch): -1; higher = weaker reporter binding
Outline: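 Designed RNA switches were transcribed on Illumina chips by stalled E. coli RNA polymerase and titrated with SNAP-549-labelled MS2 coat protein from 0.7 or 1.5 nM, doubling to 3 µM. Step length ran from 0.8–1.5 h at the lowest concentration to 10–20 min at the highest. The apparent KD is the median over clusters for each design, from curve-fitted normalised cluster fluorescence.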

[1] = input ligand: microRNA oligo, concentration not stated
[2] = Eterna round: R95, input ligand: FMN 200 uM
[3] = Eterna round: R95, input ligand: microRNA oligo, concentration not stated
[4] = Eterna round: R95, input ligand: none

Sequence	apparent KD of MS2 coat protein (input ligand: FMN 200 uM) [µM]	apparent KD of MS2 coat protein [1] [µM]	apparent KD of MS2 coat protein (input ligand: none) [µM]	apparent KD of MS2 coat protein [2] [µM]	apparent KD of MS2 coat protein [3] [µM]	apparent KD of MS2 coat protein [4] [µM]
ACAUGAUCAGGAUAUACAUGAGGAUCACCCAUGUAAAUCAAAAAAAAACUUUCUUUAUGUAGAAGGGAUCUUGU [EX3 270: Random 6] (Eterna round: R96, puzzle: Exclusion 3)	0.0152	0.0136	0.0153	–	–	–
ACAUGAUGCUUAGGAUAUGUUCUUACGCCAUGAAUAGAAGGGAGCGGACAGAAGUGACCUGACAUGAGGAUCACCCAUGUCUAA [Isusus] (Eterna round: R96, puzzle: Exclusion NG 1)	0.0844	0.048	0.0803	–	–	–
ACAUGUAUUGCAGGAUAUGGGACACAUGAGGAUCACCCAUGUGACUACAUGUAAUGCCACGGGUCUCAGAAGGGUAUGUACAUG [Ex NG2 #42] (Eterna round: R96, puzzle: Exclusion NG 2)	0.0815	0.0229	0.0313	–	–	–
ACAUGUCAUCGAGGAUAUUGGACACAUGAGGAUCACCCAUGUACUCGGUUGCUCUAGCAUGAGUUCGAGAAGGCGAUGUACAUU [Ex NG2 #80] (Eterna round: R96, puzzle: Exclusion NG 2)	0.159	0.229	0.387	–	–	–
ACAUGUGUUGUAGGAUAUAGGAUACAUGAGGAUCACCCAUGUGGAUUCAUGUCAAAGGAAGCGUCCUAGAAGGACGGCAACAUG [Ex NG2 #24] (Eterna round: R96, puzzle: Exclusion NG 2)	0.0466	0.0383	0.0496	–	–	–
ACAUGUGUUGUAGGAUAUAGGAUACAUGAGGAUCACCCAUGUGGAUUCAUGUCUAAGGAAGCGUCCUAGAAGGACGACAACAUG [Ex NG2 #25] (Eterna round: R96, puzzle: Exclusion NG 2)	0.083	0.0216	0.0276	–	–	–
ACAUGUUAUCUAGGAUAUUGGACACAUGAGGAUCACCCAUGUACCCGGAGGCUUUACUAUGAGUUCGAGAAGGAGAUGUACAUG [Ex NG2 #71] (Eterna round: R96, puzzle: Exclusion NG 2)	0.0979	0.0676	0.0731	–	–	–
ACAUUACAUGAGGAUCACCCAUGUGAGGAUAUGGAGCGGUAGUGUCCUGUCGCGUACACCAGAAGGCGCGGGUG [1st #48] (Eterna round: R97, puzzle: Exclusion 1)	0.282	–	0.0906	–	–	–
ACAUUGCGAGGAUAUACAUGAGGAUCACCCAUGUGGUGGCAGUUACGGUAGGACUAGUGUAGAAGGUGCCAUGG [EX3 #23] (Eterna round: R97, puzzle: Exclusion 3)	0.441	–	0.401	–	–	–
ACAUUUUAUCCAUGAUAUCACAUGAGGAUCACCCAUGUUAAGGCGAUUUUGAUUUGUAAGCUUUGUGCUCGACUUAU [JR_STOV1_Sub054] (Eterna round: R97, puzzle: Sensor, turn-off variant 1)	0.0356	–	0.0421	–	–	–
ACCAAUGCAGGAUAUACAUGAGGAUCACCCAUGUAUAACCUACAUAGAUGAUCAUCAUGUAGAAGGGCAAUGGA [EX3 229: Super Stable 29] (Eterna round: R96, puzzle: Exclusion 3)	0.0122	0.0111	0.0146	–	–	–
ACCGCAAGAGGAUAUACAUGAGGAUCACCCAUGUCGACCGCGAGAGACGUGGACCGGCGUAGAAGGCUUGCCAC [Eternabot (Original) Solution 50] (Eterna round: R97, puzzle: Exclusion 3)	0.355	–	0.0568	–	–	–
ACCUCACAUGAGGAUCACCCAUGUCAGGAUAUCCAACAUGCUCCCAGGACCAAGCAUAGGAGAAGGGACAUGCG (Eterna round: R97, puzzle: Exclusion 1)	0.0765	–	0.0272	–	–	–
ACCUCACAUGAGGAUCACCCAUGUCAGGAUAUCUAAUAUUGUAGCGUUCCCGACGCUAAGAGAAGGGACAUUAA [EX1 #31] (Eterna round: R97, puzzle: Exclusion 1)	0.0195	–	0.0165	–	–	–
ACCUCACAUGAGGAUCACCCAUGUCAGGAUAUCUGAUGUAGUCCCGUUCCGGACGCUGAGAGAAGGGACGUUGA [EX1 #39] (Eterna round: R97, puzzle: Exclusion 1)	0.0389	–	0.0516	–	–	–
ACCUUACUGGUCAGGAUAUACAGUCUUUGGUGUGUGUAGAAGGGACAUGAGGAUCACCCAUGUAGGUUGCUUUA [alecazam62] (Eterna round: R97, puzzle: Brourd's mod of Exclusion 4)	0.22	–	0.141	–	–	–
ACCUUACUUGAGGAUCACCCAAGUCAGGAUAUACACCAGAAUAAAUCCCAGCCCUGGCGUAGAAGGGACGGGUG [Soesma] (Eterna round: R97, puzzle: Exclusion 1)	0.0239	–	0.0218	–	–	–

Sequence	apparent KD of MS2 coat protein (input ligand: FMN 200 uM) [µM]	apparent KD of MS2 coat protein [1] [µM]	apparent KD of MS2 coat protein (input ligand: none) [µM]	apparent KD of MS2 coat protein [2] [µM]	apparent KD of MS2 coat protein [3] [µM]	apparent KD of MS2 coat protein [4] [µM]
ACGACGUAAGGAUAUACAUGAGGAUCACCCAUGUGGAGAUCCAGAGGAGAGACCUGACGUAGAAGGUGCGUCGA [Eternabot (L2) Solution 87] (Eterna round: R97, puzzle: Exclusion 3)	0.286	–	1.4	–	–	–
ACGAUGACAGAAAGAUGUCAAAAGACAUGAGGAUCACCCAUGUAGGAUAUGGCUACGAAAAGUAGUCAGAAGGACAUGUCAUCA [Omei Exc(NG) 3 Av1] (Eterna round: R96, puzzle: Exclusion NG 3)	0.0162	0.0106	0.0138	–	–	–
ACGAUGACCGAAAAGUGUUAACUGACAUGAGGAUCACCCAUGUAGGAUAUGGCUACGAAAAGUAGUCAGAAGGACAUGUCAUCA [Omei Exc(NG) 3 Av7] (Eterna round: R96, puzzle: Exclusion NG 3)	0.0178	0.0131	0.0175	–	–	–
ACGCCAGGAGGAUAUGCAAUAAGUAACAUGAGGAUCACCCAUGUUCGGGCGAUCCUCGUGGCAGAAGGCCUAGCCG [Attira] (Eterna round: R97, puzzle: Exclusion 5)	0.0955	–	0.0244	–	–	–
ACGCCCUGAGGAUAUCUUAUCCCGUACAUGAGGAUCACCCAUGUUUUCCUCCGGGCUUCGAGAGAAGGCAGGCCCA [Armus14] (Eterna round: R97, puzzle: Exclusion 5)	0.088	–	0.039	–	–	–
ACGCGACAUGAGGAUCACCCAUGUGAGGAUAUGGCCUGUUUGUCGUGUGCUGGCUCUGUCAGAAGGCGCGUUGG [salish99_ex1_r4_042] (Eterna round: R97, puzzle: Exclusion 1)	0.255	–	0.128	–	–	–
ACGCUCCGUGUAGGAUAUCGCCGUACCACUCGGCGAGAAGGACAUGAGGAUCACCCAUGUAUGUUAUUAUCACGUGUGGCGCGC [Design 51] (Eterna round: R96, puzzle: Exclusion NG 1)	0.0255	0.0152	0.0199	–	–	–
ACGGUUCUCCUCAGCUACAUGAGGAUCACCCAUGUGACUGAGCAGGAUAUACAUAAGUGCGAAAAGUAGAAGGGCUCGGCGCAC [Xeora] (Eterna round: R96, puzzle: Exclusion NG 3)	0.0122	0.00875	0.0127	–	–	–
ACGUACCUAGGAUAUACAUGGCCACAUGAUGCCAAGGAACAACUUGAGGAUCACCCAAGUAGAAGGAGGAAAAG [Riberace] (Eterna round: R97, puzzle: Exclusion 2)	0.0781	–	0.0734	–	–	–
ACGUACUGAGGAUAUACGAACAUGUCAAAAGACGUGAAGGGACAUGAGGAUCACCCAUGUAGAAGGCAGUACGA [Mat - Exclusion 2 - JL mod - D7] (Eterna round: R96, puzzle: Exclusion 2)	–	0.0327	–	–	–	–
ACGUGAUAUCUGUCGGUGGACAUGAGGAUCACCCAUGUAAGCUUUUCGCUCGUCUUAUAACCCGGUGACAGACCUUC [Edraatis] (puzzle: Sensor v3, turn-off variant 1)	–	–	–	0.0337	0.417	0.048
ACGUGAUAUCUGUCGUUGGACAUGAGGAUCACCCAUGUAAGCUUUUUGCUCGUCUUAUAACCCGGUGACAGACCUUC [Dienlave] (puzzle: Sensor v3, turn-off variant 1)	–	–	–	0.0247	0.236	0.0239
ACGUUUUUUGAGGAUAUGCGACGUUCCUUCGUCGUAGAAGGCGAUACAUGAGGAUCACCCAUGUUUAUGGGCAU [LRO-Ex6-17] (puzzle: Exclusion 6)	–	–	–	–	0.0864	–
ACUAGAUGAGGAUAUGCAUAUUUUCGUGUUCUUCUAGGUUAACAUGAGGAUCACCCAUGUAGAAGGCGUCUAUC [Exclusion 2 - 25] (puzzle: Exclusion 2)	–	–	–	–	0.0216	–
ACUAGCUUUUUGCAUAGUAGGUUUGGUGCUUCGUAUGCUACAUGAGGAUCACCCAUGUAUUACUGAUUUCGUCGUUU [JR_SV3TOV2_Sub093] (puzzle: Sensor v3, turn-off variant 2)	–	–	–	0.0246	0.0411	0.0273
ACUGGUCAUGAGGAUAUGCGCCAGAACGCCGGCGUAGAAGGCGUGACAUGAGGAUCACCCAUGUCAGUUCGCGA [eternacac ex6r4 sub30] (Eterna round: R97, puzzle: Exclusion 6)	0.0391	–	0.0396	–	–	–
ACUGGUCGAGGAUAUACAUGACGUGCUUCGGCACGAGAUCUACAUGAGGAUCACCCAUGUAGAAGGCGACCAGU [E2/11-A2] (Eterna round: R97, puzzle: Exclusion 2)	0.735	–	0.065	–	–	–
